{"source": "the supplement of paper PMC9112550", "about": "“Optimization of the antimicrobial peptide Bac7 by deep mutational scanning” (BMC Biology, 2022);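 further: peptides expressed intracellularly from a pBAD plasmid library in pooled LB shake-flask culture, induced with 0.3% L-arabinose, DNA abundance read by NGS, three biological replicates, DESeq2 with apeglm shrinkage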"}
{"system": "Escherichia coli TOP10", "test": "shrunken log2 fold change of peptide-encoding DNA abundance (4.5 h post-induction vs induction); higher = less antimicrobial activity (less host growth inhibition)", "conditions": "time post-induction: 4.5 h; library: site-saturation at positions 5, 18, 19, 20"}
{"sequence": "RRIRPRPPRLPRPRPRPSKMPRP", "shrunken log2 fold change": -0.169}
{"sequence": "RRIRMRPPRLPRPRPRPQPEPRP", "shrunken log2 fold change": 0.582}
{"sequence": "RRIRSRPPRLPRPRPRPQSTPRP", "shrunken log2 fold change": -0.24}
{"sequence": "RRIRRRPPRLPRPRPRPTVWPRP", "shrunken log2 fold change": 0.359}
{"sequence": "RRIRDRPPRLPRPRPRPMYMPRP", "shrunken log2 fold change": -0.00623}
{"sequence": "RRIRHRPPRLPRPRPRPILTPRP", "shrunken log2 fold change": -0.201}
{"sequence": "RRIRYRPPRLPRPRPRPDICPRP", "shrunken log2 fold change": -0.0244}
{"sequence": "RRIRERPPRLPRPRPRPYINPRP", "shrunken log2 fold change": -0.248}
{"sequence": "RRIRRRPPRLPRPRPRPQKRPRP", "shrunken log2 fold change": 0.13}
{"sequence": "RRIRHRPPRLPRPRPRPWPPPRP", "shrunken log2 fold change": 0.491}
{"sequence": "RRIRRRPPRLPRPRPRPMTHPRP", "shrunken log2 fold change": -0.17}
{"sequence": "RRIRQRPPRLPRPRPRPINDPRP", "shrunken log2 fold change": -0.293}
{"sequence": "RRIRVRPPRLPRPRPRPHLCPRP", "shrunken log2 fold change": -0.137}
{"sequence": "RRIRLRPPRLPRPRPRPNAMPRP", "shrunken log2 fold change": -0.16}
{"sequence": "RRIRQRPPRLPRPRPRPGEHPRP", "shrunken log2 fold change": -0.0241}
{"sequence": "RRIRKRPPRLPRPRPRPMHIPRP", "shrunken log2 fold change": 0.078}
{"sequence": "RRIRLRPPRLPRPRPRPDTQPRP", "shrunken log2 fold change": 0.0809}
{"sequence": "RRIRFRPPRLPRPRPRPEINPRP", "shrunken log2 fold change": -0.00788}
{"sequence": "RRIRWRPPRLPRPRPRPLPMPRP", "shrunken log2 fold change": 0.105}
{"sequence": "RRIRCRPPRLPRPRPRPTTGPRP", "shrunken log2 fold change": -0.0721}
{"sequence": "RRIRNRPPRLPRPRPRPFGTPRP", "shrunken log2 fold change": -0.214}
{"sequence": "RRIRARPPRLPRPRPRPLSHPRP", "shrunken log2 fold change": 0.186}
{"sequence": "RRIRFRPPRLPRPRPRPPLEPRP", "shrunken log2 fold change": 0.288}
{"sequence": "RRIRQRPPRLPRPRPRPWCYPRP", "shrunken log2 fold change": -0.466}
{"sequence": "RRIRLRPPRLPRPRPRPDNHPRP", "shrunken log2 fold change": -0.519}
{"sequence": "RRIRSRPPRLPRPRPRPKDEPRP", "shrunken log2 fold change": 0.382}
{"sequence": "RRIRIRPPRLPRPRPRPVTMPRP", "shrunken log2 fold change": -1.03}
{"sequence": "RRIRPRPPRLPRPRPRPLANPRP", "shrunken log2 fold change": -0.0209}
{"sequence": "RRIRCRPPRLPRPRPRPCCVPRP", "shrunken log2 fold change": -0.409}
{"sequence": "RRIRKRPPRLPRPRPRPYQYPRP", "shrunken log2 fold change": -0.0576}
{"sequence": "RRIRWRPPRLPRPRPRPIRQPRP", "shrunken log2 fold change": -0.0309}
{"sequence": "RRIRERPPRLPRPRPRPMCHPRP", "shrunken log2 fold change": 0.0346}
{"sequence": "RRIRMRPPRLPRPRPRPIYIPRP", "shrunken log2 fold change": -0.156}
{"sequence": "RRIRPRPPRLPRPRPRPFYKPRP", "shrunken log2 fold change": -0.25}
{"sequence": "RRIRVRPPRLPRPRPRPNFRPRP", "shrunken log2 fold change": 0.19}
{"sequence": "RRIRVRPPRLPRPRPRPKCCPRP", "shrunken log2 fold change": -0.0953}
{"sequence": "RRIRERPPRLPRPRPRPVDPPRP", "shrunken log2 fold change": -0.342}
{"sequence": "RRIRIRPPRLPRPRPRPNLGPRP", "shrunken log2 fold change": -0.109}
{"sequence": "RRIRKRPPRLPRPRPRPDFMPRP", "shrunken log2 fold change": 0.028}
{"sequence": "RRIRRRPPRLPRPRPRPFTRPRP", "shrunken log2 fold change": -0.0292}
{"sequence": "RRIRMRPPRLPRPRPRPFKVPRP", "shrunken log2 fold change": -0.111}
{"sequence": "RRIRGRPPRLPRPRPRPELTPRP", "shrunken log2 fold change": 2.02}
{"sequence": "RRIRMRPPRLPRPRPRPIQKPRP", "shrunken log2 fold change": 0.0394}
{"sequence": "RRIRCRPPRLPRPRPRPQGNPRP", "shrunken log2 fold change": -0.695}
{"sequence": "RRIRHRPPRLPRPRPRPNNWPRP", "shrunken log2 fold change": -0.269}
{"sequence": "RRIRNRPPRLPRPRPRPYRWPRP", "shrunken log2 fold change": -0.147}
{"sequence": "RRIRKRPPRLPRPRPRPMDSPRP", "shrunken log2 fold change": -0.0874}
{"sequence": "RRIRRRPPRLPRPRPRPKPYPRP", "shrunken log2 fold change": -0.033}
{"sequence": "RRIRIRPPRLPRPRPRPNAMPRP", "shrunken log2 fold change": -0.0812}
{"sequence": "RRIRCRPPRLPRPRPRPIVQPRP", "shrunken log2 fold change": 0.0655}
{"sequence": "RRIRMRPPRLPRPRPRPFSTPRP", "shrunken log2 fold change": -0.0159}
{"sequence": "RRIRDRPPRLPRPRPRPICLPRP", "shrunken log2 fold change": 0.0829}
{"sequence": "RRIRGRPPRLPRPRPRPCNNPRP", "shrunken log2 fold change": 0.0304}
{"sequence": "RRIRARPPRLPRPRPRPRETPRP", "shrunken log2 fold change": 0.52}
{"sequence": "RRIRPRPPRLPRPRPRPNAWPRP", "shrunken log2 fold change": 0.356}
{"sequence": "RRIRPRPPRLPRPRPRPSWSPRP", "shrunken log2 fold change": -0.0705}
{"sequence": "RRIRGRPPRLPRPRPRPEPQPRP", "shrunken log2 fold change": 1.41}
{"sequence": "RRIRMRPPRLPRPRPRPQERPRP", "shrunken log2 fold change": -0.00224}
{"sequence": "RRIRKRPPRLPRPRPRPWTKPRP", "shrunken log2 fold change": -0.0423}
{"sequence": "RRIRYRPPRLPRPRPRPMHNPRP", "shrunken log2 fold change": 0.162}
{"sequence": "RRIRDRPPRLPRPRPRPLYEPRP", "shrunken log2 fold change": -0.0254}
{"sequence": "RRIRKRPPRLPRPRPRPITIPRP", "shrunken log2 fold change": -0.165}
{"sequence": "RRIRERPPRLPRPRPRPQRFPRP", "shrunken log2 fold change": 0.0827}
{"sequence": "RRIRHRPPRLPRPRPRPCNDPRP", "shrunken log2 fold change": -0.283}
{"sequence": "RRIRFRPPRLPRPRPRPGWPPRP", "shrunken log2 fold change": 0.489}
{"sequence": "RRIRHRPPRLPRPRPRPSSYPRP", "shrunken log2 fold change": -0.649}
{"sequence": "RRIRARPPRLPRPRPRPGMAPRP", "shrunken log2 fold change": 0.709}
{"sequence": "RRIRPRPPRLPRPRPRPCQYPRP", "shrunken log2 fold change": 0.0594}
{"sequence": "RRIRCRPPRLPRPRPRPTCMPRP", "shrunken log2 fold change": 0.173}
{"sequence": "RRIRLRPPRLPRPRPRPSNEPRP", "shrunken log2 fold change": -0.299}
{"sequence": "RRIRLRPPRLPRPRPRPHCIPRP", "shrunken log2 fold change": -0.0543}
{"sequence": "RRIRARPPRLPRPRPRPIPCPRP", "shrunken log2 fold change": 0.0669}
{"sequence": "RRIRWRPPRLPRPRPRPIKQPRP", "shrunken log2 fold change": -0.00809}
{"sequence": "RRIRLRPPRLPRPRPRPWAVPRP", "shrunken log2 fold change": 0.0558}
{"sequence": "RRIRDRPPRLPRPRPRPEQTPRP", "shrunken log2 fold change": 0.0162}
